Results reported in paper PMC4212835.

Molecular target: Enterococcus faecalis pyruvate dehydrogenase complex component E2 (dihydrolipoamide acetyltransferase) (Enterococcus faecalis)
Experiment: SEC

| Substance | relative abundance of subunits E1, E2, and E3 (mass ratio, E2 = 1) [mass ratio] |
| --- | --- |
| Enterococcus faecalis pyruvate dehydrogenase complex component E3 (dihydrolipoyl dehydrogenase) (from UniProt A0ACD6TCW3 1-468) (enzyme) | 1.26 |
| Enterococcus faecalis pyruvate dehydrogenase complex component E1 (pyruvate dehydrogenase; E1α and E1β) (from UniProt A0ACD6TC15 1-371) | 2.27 |
